{"source": "patent US20240109974A1", "about": "(SHANDONG SIMCERE BIOPHARMACEUTICAL, published 2024)", "binders": {"B1": {"name": "001-Hu5 (antibody, V domains shown)", "VH": "EVQLVESGGGLVQPGGSLRLSCAASGFAFSTYDLSWVRQAPGKGLEWVAYINNGGISTYYSDTVKGRFTISRDNAKNTLYLQMNSLRAEDTAVYYCVRGPFYGSANYFDYWGQGTLVTVSS", "VL": "DIQMTQSPSSLSASVGDRVTITCRTSESIYSNLPWYQQKPGKSPKLLVYDATKLAEGVPSRFSGSGSGTDYTLTISSLQPEDFATYYCQHFWVTPWTFGQGTKVEIK", "notes": "Humanized form of #001; also called VH1 + VL4"}, "B2": {"name": "001-Hu1 (antibody, V domains shown)", "VH": "B1 VH", "VL": "B1 VL with S43A, V48L", "notes": "Humanized form of #001; also called VH1 + VL1"}, "B3": {"name": "001-Hu2 (antibody, V domains shown)", "VH": "B1 VH with T78S", "VL": "B1 VL with V48I, Y71F", "notes": "Humanized form of #001; also called VH2 + VL2"}, "B4": {"name": "001-Hu3 (antibody, V domains shown)", "VH": "B1 VH", "VL": "B1 VL with S43A, V48I", "notes": "Humanized form of #001; also called VH1 + VL3"}, "B5": {"name": "001-Hu4 (antibody, V domains shown)", "VH": "B1 VH with T78S", "VL": "B1 VL", "notes": "Humanized form of #001; also called VH2 + VL4"}, "B6": {"name": "219-Hu3 (antibody, V domains shown)", "VH": "QVQLVQSGAEVKKPGSSVKVSCKASGYSFTNYWMNWVRQAPGQGLEWMGMIHPSDTETRLNQNFKDRVTITADKSTSTAYMELSSLRSEDTAVYYCARGEGLGAARSVSMDYWGQGTLVTVSS", "VL": "DIQMTQSPSSLSASVGDRVTITCRASQDISNYLNWYQQKPDGTVKLLIYYTAILHSGVPSRFSGSGSGTDYSLTISSLQPEDFATYFCQQGNTLPWTFGQGTKVEIK", "notes": "also called VH5 + VL5"}, "B7": {"name": "219-Hu1 (antibody, V domains shown)", "VH": "B6 VH with S16A, G44R, A72R, K74T, T76A", "VL": "B6 VL", "notes": "also called VH3 + VL5"}, "B8": {"name": "219-Hu2 (antibody, V domains shown)", "VH": "B6 VH with R67K, V68A", "VL": "B6 VL", "notes": "also called VH4 + VL5"}, "B9": {"name": "219-Hu4 (antibody, V domains shown)", "VH": "B6 VH with R38K, M48I, R67K, V68A, I70L, A72V", "VL": "B6 VL", "notes": "also called VH6 + VL5"}, "B10": {"name": "219-Hu5 (antibody, V domains shown)", "VH": "B6 VH with A72V", "VL": "B6 VL", "notes": "also called VH7 + VL5"}}, "note": "Numbering of substitutions follows the chain as printed.", "data": [{"target": "T1, human TNFR2 on the surface of CHO-TNFR2 cells (human, UniProt P20333 23-461)", "T1 construct": "whole, on cells", "T1 sequence (looked up)": "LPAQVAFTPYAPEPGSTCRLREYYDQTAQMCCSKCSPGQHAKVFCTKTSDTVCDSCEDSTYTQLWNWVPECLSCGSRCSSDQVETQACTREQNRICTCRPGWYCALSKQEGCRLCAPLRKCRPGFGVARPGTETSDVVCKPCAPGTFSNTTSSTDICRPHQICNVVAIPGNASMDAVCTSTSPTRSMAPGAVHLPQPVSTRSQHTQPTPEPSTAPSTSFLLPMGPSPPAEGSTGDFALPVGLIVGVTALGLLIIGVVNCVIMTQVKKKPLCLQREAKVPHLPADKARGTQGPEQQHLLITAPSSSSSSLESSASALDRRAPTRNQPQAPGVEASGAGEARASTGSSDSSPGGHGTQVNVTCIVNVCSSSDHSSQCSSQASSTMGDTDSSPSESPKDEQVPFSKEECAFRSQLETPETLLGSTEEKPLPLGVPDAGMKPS", "experiment": "flow cytometry on CHO-TNFR2 cells; EC50 against 001-WT", "procedure": "The transfected full-length plasmid of human TNFR2 was purchased from Sino Biological (Cat #HG10417-UT, NCBI Ref Seq: NM_001066.2). The experiment was conducted at a cell density within 80%. The cell medium was discarded; the cells were rinsed with PBS, and digested with 1 ml trypsin for 2 minutes; the digestion was stopped with a Ham's F12 complete medium containing 10% FBS, and then a cell suspension was made. The cell suspension was counted, and then an appropriate amount of cell suspension was centrifuged at 350×g; the supernatant was discarded; a corresponding volume of blocking solution (10% FBS+PBS) at a density of 1×10⁷ cells/ml was added to resuspend the cells, and the mixture was incubated at 4° C. for 30 minutes. After the incubation, the mixture was centrifuged at 350×g to remove the supernatant, and the cells were resuspended in a staining buffer (2% FBS+PBS) to a density of 2×10⁶ cells/ml, and spread onto a 96-well plate, with 50 μl of cell suspension added to each well for later use. The antibody was diluted with PBS for 10-fold gradient dilution from the highest concentration of 20 μg/m (twice the concentration); the diluted antibody was added to the well containing 50 μl of cell suspension, and placed on a microplate shaker for shaking at 500 rpm for 1 minute, so that the antibody was fully mixed with the cells; the mixture was incubated at 4° C. for 1 h. After the incubation, the cells were washed twice with the staining buffer, with 100 μl per well, and centrifuged at 350-g for 5 minutes, and the supernatant was discarded. The PE goat anti-Human IgG Fc antibody (ebioscience, Cat #12-4998-82) was diluted 250-fold with the staining buffer, with a volume of 100 μl per well added to the washed cell wells; the mixture was mixed evenly, and stained at 4° C. for 30 minutes. After the staining, similarly, the cells were washed twice with the staining buffer; finally, the cells were resuspended in 200 μl of staining buffer; signals were detected by a flow cytometer (Thermo Attune NxT). The stronger the signal, the stronger the binding ability of an antibody to TNFR2. The binding curve of an antibody was drawn with antibody concentration as the abscissa and corresponding mean fluorescence intensity (MFI) fold as the ordinate, and fitted with four parameters (GraphPad Prism9) to calculate the EC50 value.", "units": {"% Relative activity (WT antibody/test antibody)": "%"}, "values": [{"binder": "B1", "% Relative activity (WT antibody/test antibody)": 123}, {"binder": "B2", "% Relative activity (WT antibody/test antibody)": 78}, {"binder": "B3", "% Relative activity (WT antibody/test antibody)": 48}, {"binder": "B4", "% Relative activity (WT antibody/test antibody)": 101}, {"binder": "B5", "% Relative activity (WT antibody/test antibody)": 129}]}, {"target": "T1, human TNFR2 on the surface of CHO-TNFR2 …", "experiment": "competition flow cytometry on CHO-TNFR2 cells, competitor TNFα-biotin; IC50 against 219-WT", "procedure": "CHO stable cells highly expressing human TNFR2 were used for the experiment (the same as CHO-TNFR2 in Example 4). The CHO-TNFR2 cells were digested, washed twice with DPBS, then stained with Live/Dead (L/D) (20 minutes at room temperature), and plated at a density of 1×10⁵ cells/50 μl/well. A test anti-TNFR2 antibody was diluted to 6 μg/ml with a staining buffer as the starting concentration: the antibody was subjected to 3.33-fold gradient dilution, with a total of 7 concentration points. The diluted antibody was added to the plated cells at 50 μl/well, and the mixture was mixed well by gentle pipetting, and incubated at 4° C. for 30 minutes. Then the diluted 100 ng/ml of human TNFα-biotin was added at 100 μl/well, and the mixture was mixed well by gentle pipetting, and then incubated at 4° C. for 30 minutes. The mixture was washed twice with a staining buffer, and then 0.12 μg/ml PE-streptavidin (BioLegend, Cat #405204) was added at 100 μl/well; the resulting mixture was incubated at 4° C. for 30 minutes. The mixture was washed twice with a staining buffer, and then 150 μl of staining buffer was added to resuspend the cells; signals were detected by a flow cytometer (Thermo Attune NxT). The inhibitory curve of an antibody was drawn with antibody concentration as the abscissa and corresponding MFI value as the ordinate, and fitted with four parameters (GraphPad Prism9) to calculate the IC50 value. The smaller the IC50 value, the stronger the ability of an antibody to inhibit the binding of human TNFα to human TNFR2. The blocking effect of a humanized antibody was normalized to its corresponding human-murine chimeric WT antibody. The higher the percentage value, the better the inhibitory effect of the humanized antibody.", "units": {"% Relative activity (WT antibody/test antibody)": "%"}, "values": [{"binder": "B6", "% Relative activity (WT antibody/test antibody)": 120}, {"binder": "B7", "% Relative activity (WT antibody/test antibody)": 106}, {"binder": "B8", "% Relative activity (WT antibody/test antibody)": 127}, {"binder": "B9", "% Relative activity (WT antibody/test antibody)": 124}, {"binder": "B10", "% Relative activity (WT antibody/test antibody)": 138}]}]}
